Test results: patent EP4818210A1

Experiments:
[1] = molecular target: Her2/ERBB2 Protein, Human, Recombinant (ECD, His Tag) (human) (UniProt P04626); assay: ELISA, control on human HER2 antigen
[2] = molecular target: Her2/ERBB2 Protein, Human, Recombinant (ECD, His Tag) (human) (UniProt P04626); assay: ELISA, E. coli lysate supernatant on human HER2 antigen

Row | Molecule | OD450 [1] [OD450] | OD450 [2] [OD450]
1 | Irrelevant | 0.073 | 
2 | M26H2-2002 (VHH) VHH: QVQLVESGGGLVQPGGSLRLSCAASGFIFGNYPMNWYRQAPGKEREFVAVITRDGGVTRYAASVKGRFTITRDNAKNTVFLQMNSLKLEDTAVYYCHNPNYNAWGQGTQVTVAS |  | 0.804
3 | M26H2-3134 (VHH) VHH: QVQLVESGGGMVQPGGSLRLSCAASGITFRHYTMSWYRQAPGKERELVASITYGGVTTNYADSVKGRFTLSRDDAKTTAYLQMTGLKPEDTAVYYCHADWTAAGLNHWGQGTQVTVSS |  | 1.03
